Experimental findings from patent US20170260241A1 are described below.

This assay deals with recombinant TLR4 protein. As to the kind of experiment: ELISA: TLR4 coated on the plate, MD2 titrated from 133.3 to 0.065 nM, anti-MD2 detection, nonlinear regression.

The term Kd denotes the equilibrium constant for the complex coming apart. Consider recombinant MD2 protein (ligand), for which the Kd is 18.4 nM.
